This is an account of results in the supplement of paper PMC7877785.

± gives the uncertainty stated by the source.

A short description of this data set: self-splicing fitness, log relative to wild type (ln ratio); higher = more splicing; Tetrahymena group I intron in knt gene, E. coli kanamycin selection, DiMSum; sequences stand for … in CUCUCU…GGAGGGAAAAGUUAUCAGGCAUGCACCUGGUAGCUAGUCUUUAAACCAAUAGAUUGCAUCGGUUUAAAAGGCAAGACCGUCAAAUUGCGGGAAAGGGGUCAACAGCCGUUCAGUACCAAGUCUCAGGGGAAACUUUGAGAUGGCCUUGCAAAGGGUAUGGUAAUAAGCUGACGGACAUGGUCCUAACCACGCAGCCAAGUCCUAAGUCAACAGAUCUUCUGUUGAUAUGGAUGCAGUUCACAGACUAAAUGUCGGUCGGGGAAGAUGUAUUCUUCUCAUAAGAUAUAGUCGGACCUCUCCUUAAUGGGAGCUAGCGGAUGAAGUGAUGCAACACUGGAGCCGCUGGGAACUAAUUUGUAUGCGAAAGUAUAUUGAUUAGUUUUGGAGUACUCGUGGUCG
The procedure, abridged: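 Colonies from six replicate transformations of E. coli BL21(DE3) were pooled and amplicon-sequenced on an Illumina HiSeq 2500. The library placed an intron with all eight P1ex-region nucleotides randomised inside the knt kanamycin-resistance gene on pET-22b(+), and cells grew overnight at 37°C or 30°C on LB agar with or without 25 μg/mL kanamycin (plus 100 μg/mL carbenicillin, 50 μM IPTG, 0.2% rhamnose). Fitness is the DiMSum error-weighted combination of wild-type-normalised replicate fold changes, kanamycin versus none.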

With AACGAGCAAUAUUACGUUGG, the “self-splicing fitness (ln)” value reads like this: (30 °C) -3.75 ± 0.24; (37 °C) -2.86 ± 0.25.
On to GAACAGCAAUAUUACGGUUC, for which the “self-splicing fitness (ln)” value was -3 ± 0.14 (30 °C) and -2.93 ± 0.22 (37 °C).
The like results for ACCCAGCAAUAUUACGUUGC were, in that order, -2.99 ± 0.089 and -0.989 ± 0.076.
As for UCUAAGCAAUAUUACGUGAG, the “self-splicing fitness (ln)” value reads like this: (30 °C) -1.32 ± 0.074; (37 °C) 0.269 ± 0.096.
Turning to CUCAAGCAAUAUUACGAAUU, the “self-splicing fitness (ln)” value (30 °C) is -4.18 ± 0.28 and the “self-splicing fitness (ln)” value (37 °C) was -3.03 ± 0.29.
With CCACAGCAAUAUUACGGUCG, the “self-splicing fitness (ln)” value is -0.147 ± 0.066 (30 °C) and 0.437 ± 0.086 (37 °C).
As to AUAAAGCAAUAUUACGAAAA, the “self-splicing fitness (ln)” value is, setting by setting: (30 °C) -1.4 ± 0.091; (37 °C) -0.609 ± 0.11.
On to CGUAAGCAAUAUUACGUGGC, for which the “self-splicing fitness (ln)” value reads like this: (30 °C) -4.85 ± 0.36; (37 °C) -2.39 ± 0.15.
On to AGCAAGCAAUAUUACGCACC, for which the “self-splicing fitness (ln)” value (30 °C) is -0.646 ± 0.14 and the “self-splicing fitness (ln)” value (37 °C) is 0.533 ± 0.18.
The like results for UGGGAGCAAUAUUACGGGAU were, in that order, -3.11 ± 0.37 and -2.17 ± 0.29.
In the case of AGCGAGCAAUAUUACGCGAA, the “self-splicing fitness (ln)” value was -2.39 ± 0.36 (30 °C) and -1.21 ± 0.32 (37 °C).
As to CUCCAGCAAUAUUACGAGGC, under “30 °C”, the “self-splicing fitness (ln)” value was -3.02 ± 0.3.
In the case of GUCAAGCAAUAUUACGCUUU, the “self-splicing fitness (ln)” value by setting is: (30 °C) -2.41 ± 0.21; (37 °C) -1.73 ± 0.16.
Turning to UACGAGCAAUAUUACGGGGC, the “self-splicing fitness (ln)” value (37 °C) was -3.34 ± 0.3.
For the sequence UGAGAGCAAUAUUACGGUUC, the “self-splicing fitness (ln)” value was -3.4 ± 0.32 (30 °C) and -1.5 ± 0.23 (37 °C).
The like results for AUCAAGCAAUAUUACGAAAG were, in that order, -3.67 ± 0.21 and -2.74 ± 0.25.
The like results for UAUCAGCAAUAUUACGACCG were, in that order, -0.12 ± 0.081 and 0.738 ± 0.11.
Regarding CUAGAGCAAUAUUACGUAGA, the “self-splicing fitness (ln)” value is, setting by setting: (30 °C) -3.37 ± 0.16; (37 °C) -1.5 ± 0.15.
With CCGUAGCAAUAUUACGUGGC, the “self-splicing fitness (ln)” value is -3.76 ± 0.26 (30 °C) and -2.73 ± 0.26 (37 °C).
The like results for ACAUAGCAAUAUUACGAUCA were, in that order, -1.71 ± 0.087 and -0.779 ± 0.098.
The like results for GGUGAGCAAUAUUACGGUUG were, in that order, -3.99 ± 0.37 and -2.36 ± 0.25.
Take GCGGAGCAAUAUUACGUAUG: the “self-splicing fitness (ln)” value is -3.28 ± 0.31 (30 °C) and -2.58 ± 0.41 (37 °C).
Consider GGCUAGCAAUAUUACGGCGU, for which the “self-splicing fitness (ln)” value is -0.171 ± 0.086 (30 °C) and -0.201 ± 0.094 (37 °C).
For AGCCAGCAAUAUUACGACCC, the “self-splicing fitness (ln)” value reads like this: (30 °C) -1.46 ± 0.34; (37 °C) -0.503 ± 0.24.
For the sequence UCAAAGCAAUAUUACGAUGU, the “self-splicing fitness (ln)” value is -1.09 ± 0.074 (30 °C) and -0.341 ± 0.081 (37 °C).
The like results for AGCUAGCAAUAUUACGAUCG were, in that order, -1.81 ± 0.16 and -0.102 ± 0.18.
Take AAGCAGCAAUAUUACGCGAA: the “self-splicing fitness (ln)” value runs as follows: (30 °C) -1.77 ± 0.083; (37 °C) -1.2 ± 0.1.
Consider AUUUAGCAAUAUUACGCGUG, for which the “self-splicing fitness (ln)” value is, setting by setting: (30 °C) -1.2 ± 0.14; (37 °C) -0.97 ± 0.14.
The like results for UUCUAGCAAUAUUACGUUGU were, in that order, -3.15 ± 0.16 and -2.75 ± 0.18.
The like results for UCUCAGCAAUAUUACGCAAG were, in that order, -4.47 ± 0.39 and -2.02 ± 0.2.
Take UCACAGCAAUAUUACGUGUC: the “self-splicing fitness (ln)” value (30 °C) is -3.55 ± 0.2 and the “self-splicing fitness (ln)” value (37 °C) was -2.6 ± 0.2.
The like results for UUUGAGCAAUAUUACGCAGC were, in that order, -3.5 ± 0.28 and -2.43 ± 0.21.
The like results for UCUUAGCAAUAUUACGGGGA were, in that order, -1.1 ± 0.15 and -1 ± 0.16.
Take ACGAAGCAAUAUUACGUAAA: the “self-splicing fitness (ln)” value is -2.9 ± 0.18 (30 °C) and -1.45 ± 0.19 (37 °C).
As to UGCAAGCAAUAUUACGAGAA, the “self-splicing fitness (ln)” value was -2.52 ± 0.47 (30 °C) and -1.94 ± 0.27 (37 °C).
For GGUCAGCAAUAUUACGCAUG, the “self-splicing fitness (ln)” value (30 °C) was -1.15 ± 0.1 and the “self-splicing fitness (ln)” value (37 °C) was -0.079 ± 0.12.
The like results for AGGAAGCAAUAUUACGCGAU were, in that order, -3.28 ± 0.28 and -2.11 ± 0.25.
The like results for GUUAAGCAAUAUUACGACCU were, in that order, -0.481 ± 0.14 and -0.37 ± 0.2.
The like results for UACUAGCAAUAUUACGAUGG were, in that order, -0.657 ± 0.12 and -0.406 ± 0.2.
For UGUUAGCAAUAUUACGCGUA, the “self-splicing fitness (ln)” value was -0.809 ± 0.12 (30 °C) and -0.454 ± 0.13 (37 °C).
The like results for AUGCAGCAAUAUUACGGUAA were, in that order, -0.979 ± 0.11 and -0.791 ± 0.1.
As for CUGAAGCAAUAUUACGCCUU, the “self-splicing fitness (ln)” value was -4.07 ± 0.33 (30 °C) and -2.33 ± 0.31 (37 °C).
Regarding UCCGAGCAAUAUUACGAUGA, the “self-splicing fitness (ln)” value reads like this: (30 °C) -0.4 ± 0.068; (37 °C) -0.0382 ± 0.079.
As to UCCUAGCAAUAUUACGUAGU, the “self-splicing fitness (ln)” value is, setting by setting: (30 °C) -2.62 ± 0.15; (37 °C) -1.29 ± 0.18.
With UCAAAGCAAUAUUACGUACU, the “self-splicing fitness (ln)” value runs as follows: (30 °C) -3.16 ± 0.45; (37 °C) -2.28 ± 0.37.
As to AGGAAGCAAUAUUACGUUCA, the “self-splicing fitness (ln)” value by setting is: (30 °C) -0.532 ± 0.13; (37 °C) -1.05 ± 0.21.
For ACUUAGCAAUAUUACGGUCC, the “self-splicing fitness (ln)” value is, setting by setting: (30 °C) -2.46 ± 0.12; (37 °C) -1.33 ± 0.12.
The like results for CUAGAGCAAUAUUACGGCUU were, in that order, -2.92 ± 0.24 and -1.94 ± 0.26.
As to CGUUAGCAAUAUUACGGGAG, the “self-splicing fitness (ln)” value is -3.32 ± 0.2 (30 °C) and -2.39 ± 0.17 (37 °C).
Consider CCGAAGCAAUAUUACGCGAA, for which the “self-splicing fitness (ln)” value (37 °C) is -2.24 ± 0.2.
On the same count and under the same terms, the same measure for AGUAAGCAAUAUUACGUGAC: -2.19 ± 0.2.
As for AAUCAGCAAUAUUACGUACU, the “self-splicing fitness (ln)” value (30 °C) is 0.336 ± 0.084 and the “self-splicing fitness (ln)” value (37 °C) is 0.692 ± 0.11.
With GUCUAGCAAUAUUACGGGAC, the “self-splicing fitness (ln)” value (37 °C) is -1.65 ± 0.45.
For the sequence AAAAAGCAAUAUUACGUCUC, the “self-splicing fitness (ln)” value was -1.51 ± 0.078 (30 °C) and -0.62 ± 0.093 (37 °C).
The like results for ACAAAGCAAUAUUACGGCGG were, in that order, -0.226 ± 0.08 and -0.154 ± 0.092.
The like results for UGUGAGCAAUAUUACGAGGC were, in that order, -3.2 ± 0.28 and -3.1 ± 0.36.
Turning to GAAUAGCAAUAUUACGCUGA, the “self-splicing fitness (ln)” value reads like this: (30 °C) -2.56 ± 0.31; (37 °C) -0.623 ± 0.22.
The like results for GAUAAGCAAUAUUACGGGUA were, in that order, -1.69 ± 0.14 and -1.37 ± 0.17.
The like results for AGACAGCAAUAUUACGAACA were, in that order, -1.33 ± 0.1 and -0.502 ± 0.099.
The like results for CUACAGCAAUAUUACGGGAG were, in that order, -2.62 ± 0.11 and -1.96 ± 0.12.
As to GCCAAGCAAUAUUACGGAAG, the “self-splicing fitness (ln)” value is -3.55 ± 0.34 (30 °C) and -2.57 ± 0.33 (37 °C).
The like results for UGUCAGCAAUAUUACGGGUC were, in that order, -3.4 ± 0.14 and -2.66 ± 0.15.
Turning to GCGUAGCAAUAUUACGCGGG, the “self-splicing fitness (ln)” value runs as follows: (30 °C) -3.78 ± 0.24; (37 °C) -2.75 ± 0.3.
The like results for UGUUAGCAAUAUUACGAGGC were, in that order, -3.73 ± 0.43 and -2.67 ± 0.38.
Take GUAAAGCAAUAUUACGUCAU: the “self-splicing fitness (ln)” value is, setting by setting: (30 °C) -0.555 ± 0.095; (37 °C) -0.359 ± 0.096.
Turning to ACAUAGCAAUAUUACGUGUA, the “self-splicing fitness (ln)” value is -2.68 ± 0.21 (30 °C) and -2.11 ± 0.22 (37 °C).
UCGAAGCAAUAUUACGUCAG: the “self-splicing fitness (ln)” value was -0.27 ± 0.089 (30 °C) and -0.968 ± 0.12 (37 °C).
In the case of AAAAAGCAAUAUUACGUUUC, the “self-splicing fitness (ln)” value was -2.04 ± 0.13 (30 °C) and -3.26 ± 0.28 (37 °C).
The like results for UAGUAGCAAUAUUACGUGCU were, in that order, -1.79 ± 0.11 and -0.826 ± 0.12.
The like results for GACCAGCAAUAUUACGCUCG were, in that order, -0.964 ± 0.13 and -0.766 ± 0.12.
The like results for ACGCAGCAAUAUUACGGGUA were, in that order, -2.46 ± 0.11 and -1.37 ± 0.087.
On to UACCAGCAAUAUUACGUUCC, for which the “self-splicing fitness (ln)” value (30 °C) was -2.79 ± 0.19 and the “self-splicing fitness (ln)” value (37 °C) is -1.77 ± 0.22.
Turning to GUUCAGCAAUAUUACGGGCG, the “self-splicing fitness (ln)” value is -1.57 ± 0.15 (30 °C) and -0.592 ± 0.15 (37 °C).
The like results for CCAGAGCAAUAUUACGUAAA were, in that order, -2.75 ± 0.2 and -1.29 ± 0.3.
As to UGAAAGCAAUAUUACGACAU, the “self-splicing fitness (ln)” value was -1.26 ± 0.013 (30 °C) and -0.435 ± 0.032 (37 °C).
UGUCAGCAAUAUUACGAGAU: the “self-splicing fitness (ln)” value is, setting by setting: (30 °C) -3.11 ± 0.22; (37 °C) -2.56 ± 0.27.
